Results: patent publication CN113754775A (SUNSHINE GUOJIAN PHARMACEUTICAL SHANGHAI CO LTD, dated 2021)

Target: T1, PDL1-ECD-his (human, UniProt Q9NZQ7 19-238)
T1 construct: extracellular domain; Made in HEK-293F
Test: ELISA, PDL1-ECD-his coated, anti-human IgG Fc-HRP

T1 sequence (Q9NZQ7 other isoform, or with tags, fused parts or gaps): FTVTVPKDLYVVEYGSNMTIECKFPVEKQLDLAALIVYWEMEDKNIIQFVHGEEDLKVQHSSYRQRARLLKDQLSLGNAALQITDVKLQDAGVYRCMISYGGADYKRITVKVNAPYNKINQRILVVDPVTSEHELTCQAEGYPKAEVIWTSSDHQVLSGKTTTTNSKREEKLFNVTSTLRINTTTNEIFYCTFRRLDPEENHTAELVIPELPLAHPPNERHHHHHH

- binding result: binds
B1: 抗人PD-L1抗体M8 (antibody, V domains shown)
VH: QVQLQQSGGGLVKPSQSLSLTCTVSGFSLTSYGVHWVRQPPGKGLEWIGLIWSGGGTDYNPSLKSRLTISRDTSKNQVSFKISSLTAADTAVYYCARQLGLRAMDYWGQGTSVTVSS
VL: EIVLTQSPDFLSVTPKEKVTITCRASQSIGTTIHWYQQKPDQSPKLLIKYASQSFSGVPSRFSGSGSGTDFTLTINSVEAEDAATYYCQQSNSWPLTFGAGTKLEIK
notes: Whole monoclonal antibody with two heavy and two light chains, made in HEK293F; also called anti-human PD-L1 antibody M8
